Target: PD-L1 on the surface of murine cells (MC38, B16, wild-type DC 2.4) (murine) (UniProt Q9EP73)
Test: FACS on MC38 cells, FITC-labeled goat anti-human secondary antibody

Chain of PD-L1 on the surface of murine cells (MC38, B16, wild-type DC 2.4) (murine) (Q9EP73 19-290): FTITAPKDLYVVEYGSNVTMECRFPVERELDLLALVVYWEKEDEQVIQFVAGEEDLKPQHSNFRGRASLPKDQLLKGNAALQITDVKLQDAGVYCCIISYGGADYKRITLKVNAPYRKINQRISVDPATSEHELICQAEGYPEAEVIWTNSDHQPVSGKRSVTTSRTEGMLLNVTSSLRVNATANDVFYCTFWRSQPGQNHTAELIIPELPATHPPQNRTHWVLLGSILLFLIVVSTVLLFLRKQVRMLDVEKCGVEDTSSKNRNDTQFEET

- MFI: 167
- shift rate of the FITC positive signal relative to the NC group: 1.7%
Substance: isotype control IgG (antibody)

From patent US20240252670A1, “ANTIBODY DRUG CONJUGATE, PREPARATION METHOD THEREFOR AND APPLICATION THEREOF” (TSINGHUA UNIVERSITY, priority 2021, published 2024)
